Reference: patent publication US9839701B2, “Aromatic amino acid derivative and positron emission topography (PET) probe using the same” (OSAKA UNIVERSITY, priority 2013, dated 2017)

Substrate: N[C@@H](Cc1ccc(O)cc1)C(=O)O
Test: Promoting effect on amino acid efflux from human LAT2 stably expressing cell line
Type: cell-based
Conditions: other: Km for amino acid efflux, Table 7; 37.0 °C
Experimental: In the same manner as in Example 3, the human LAT1 stably expressing cell line and the human LAT2 stably expressing cell line were seeded on separate collagen-coated 24-well plates, and after 48 hours, the cells were washed with an uptake buffer prewarmed at 37° C. An uptake buffer supplemented with 1 μM of [^14C]L-leucine or [^14C]L-alanine was added to each well, and [^14C]L-leucine or [^14C]L-alanine uptake by the cells was allowed to proceed at 37° C. for 10 minutes. The cells were washed with an uptake buffer prewarmed at 37° C., treated with the compound of Example 1 or the positive control FAMT at 1, 2, 3, 5, 10, 20, 50, 100 or 200 μM, and incubated at 37° C. for 1 minute, and the supernatants were collected. The radioactivity in each supernatant was measured as the radioactivity of the amino acid released from the cells. Subsequently, 500 μL of 0.1 M NaOH was added to each well for cell lysis, 20 μL of the lysate was used for the measurement of the protein concentration, and the remaining lysate was used for the measurement of the residual radioactivity in the cells. The sum of the residual radioactivity and the released radioactivity in each experiment was checked to confirm that there was no great difference in the total radioactivity incorporated into the cells at the preloading among the experiments. […]

B1: human LAT2 (Homo sapiens) (protein)
chain: MEEGARHRNNTEKKHPGGGESDASPEAGSGGGGVALKKEIGLVSACGIIVGNIIGSGIFVSPKGVLENAGSVGLALIVWIVTGFITVVGALCYAELGVTIPKSGGDYSYVKDIFGGLAGFLRLWIAVLVIYPTNQAVIALTFSNYVLQPLFPTCFPPESGLRLLAAICLLLLTWVNCSSVRWATRVQDIFTAGKLLALALIIIMGIVQICKGEYFWLEPKNAFENFQEPDIGLVALAFLQGSFAYGGWNFLNYVTEELVDPYKNLPRAIFISIPLVTFVYVFANVAYVTAMSPQELLASNAVAVTFGEKLLGVMAWIMPISVALSTFGGVNGSLFTSSRLFFAGAREGHLPSVLAMIHVKRCTPIPALLFTCISTLLMLVTSDMYTLINYVGFINYLFYGVTVAGQIVLRWKKPDIPRPIKINLLFPIIYLLFWAFLLVFSLWSEPVVCGIGLAIMLTGVPVYFLGVYWQHKPKCFSDFIELLTLVSQKMCVVVYPEVERGSGTEEANEDMEEQQQPMYQPTPTKDKDVAGQPQP
notes: expressed in transfected cells
Km: 32.7 µM
